Test results published in patent publication US20140162289A1.

Biological target: ADRB2-luc234R233 (β2 adrenergic receptor fused at its C terminus to permuted firefly luciferase with R at the X position of the TEV cleavage site) (firefly) (UniProt P07550)
Experiment: cell-based or functional assay

Chain of Human β arrestin 2-TEV fusion (tobacco etch virus protease A fused to the C terminus of β arrestin 2) (P32121 1-409, tags or fused parts left off): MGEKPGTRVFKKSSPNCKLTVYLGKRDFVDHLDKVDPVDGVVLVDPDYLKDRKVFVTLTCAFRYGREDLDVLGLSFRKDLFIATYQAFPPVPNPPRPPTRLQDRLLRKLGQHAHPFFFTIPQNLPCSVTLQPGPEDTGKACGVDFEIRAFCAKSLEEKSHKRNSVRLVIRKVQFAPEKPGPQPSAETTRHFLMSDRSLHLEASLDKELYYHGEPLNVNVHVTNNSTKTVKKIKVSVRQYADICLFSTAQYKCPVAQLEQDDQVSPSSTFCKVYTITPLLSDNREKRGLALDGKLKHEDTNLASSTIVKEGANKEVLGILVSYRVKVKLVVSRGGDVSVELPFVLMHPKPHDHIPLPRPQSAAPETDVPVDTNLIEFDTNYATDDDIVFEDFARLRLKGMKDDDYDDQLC

Human β arrestin 2-TEV fusion (tobacco etch virus protease A fused to the C terminus of β arrestin 2) (from UniProt P32121 1-409; P04517 2040-2279)
> 3 fold: relative luminescence (reconstituted permuted luciferase) in co-transfected CHO-K1 cells, with or without 10 µM isoproterenol, 2 hours | relative luminescence in co-transfected CHO-K1 cells, with or without 10 µM isoproterenol, 2 hours | relative luminescence units in cotransfected CHO-K1 cells, with or without 10 µM ADRB2 agonist, 2 hours
